The values below come from patent publication US20230110287A1.

The target of the assay is mouse (murine) NGF (mouse) (UniProt P01139). Put plainly: SPR, purified antibody, beta muNGF, 39 C.
Chain of mouse (murine) NGF (mouse) (P01139 122-241 limits assumed): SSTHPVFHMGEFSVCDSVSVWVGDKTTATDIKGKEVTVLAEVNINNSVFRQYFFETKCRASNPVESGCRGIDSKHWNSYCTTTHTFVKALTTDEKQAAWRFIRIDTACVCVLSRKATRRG

In turn, “chimeric αD11 (rat αD11 variable regions fused to canine constant chain regions) (antibody)” gave a Kd of 0.905 pM, a koff of 6.2e-06 s⁻¹ and a kon of 6.86e+06 M⁻¹ s⁻¹.
